# Source: patent US20140271478A1 (University of California, published 2014)
# T1: human integrin β8 swap construct KKMAFY (SEQ ID NO:131) (human, UniProt P26012 43-769)
# T1 sequence: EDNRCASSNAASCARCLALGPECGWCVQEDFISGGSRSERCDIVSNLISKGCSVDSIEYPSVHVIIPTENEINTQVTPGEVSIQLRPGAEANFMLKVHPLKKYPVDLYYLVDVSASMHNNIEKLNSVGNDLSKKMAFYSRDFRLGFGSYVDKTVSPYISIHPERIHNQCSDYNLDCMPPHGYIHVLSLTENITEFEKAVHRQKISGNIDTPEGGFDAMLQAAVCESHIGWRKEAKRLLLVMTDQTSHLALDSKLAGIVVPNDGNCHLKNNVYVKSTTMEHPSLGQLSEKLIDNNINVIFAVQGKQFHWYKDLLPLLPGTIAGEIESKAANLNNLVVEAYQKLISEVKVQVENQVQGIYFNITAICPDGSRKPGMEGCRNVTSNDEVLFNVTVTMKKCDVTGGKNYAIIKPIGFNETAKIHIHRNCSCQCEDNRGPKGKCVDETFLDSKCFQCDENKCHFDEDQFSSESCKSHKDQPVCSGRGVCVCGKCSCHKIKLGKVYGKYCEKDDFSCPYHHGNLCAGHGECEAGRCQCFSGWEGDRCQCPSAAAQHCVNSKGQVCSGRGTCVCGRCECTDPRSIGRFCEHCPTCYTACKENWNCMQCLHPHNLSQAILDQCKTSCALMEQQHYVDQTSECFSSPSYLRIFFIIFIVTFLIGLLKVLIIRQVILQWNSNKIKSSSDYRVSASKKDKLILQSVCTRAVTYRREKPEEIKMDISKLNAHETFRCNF
# T2: human integrin β8 swap construct KKMALF (SEQ ID NO:132) (human, UniProt P26012 43-769)
# T2 sequence: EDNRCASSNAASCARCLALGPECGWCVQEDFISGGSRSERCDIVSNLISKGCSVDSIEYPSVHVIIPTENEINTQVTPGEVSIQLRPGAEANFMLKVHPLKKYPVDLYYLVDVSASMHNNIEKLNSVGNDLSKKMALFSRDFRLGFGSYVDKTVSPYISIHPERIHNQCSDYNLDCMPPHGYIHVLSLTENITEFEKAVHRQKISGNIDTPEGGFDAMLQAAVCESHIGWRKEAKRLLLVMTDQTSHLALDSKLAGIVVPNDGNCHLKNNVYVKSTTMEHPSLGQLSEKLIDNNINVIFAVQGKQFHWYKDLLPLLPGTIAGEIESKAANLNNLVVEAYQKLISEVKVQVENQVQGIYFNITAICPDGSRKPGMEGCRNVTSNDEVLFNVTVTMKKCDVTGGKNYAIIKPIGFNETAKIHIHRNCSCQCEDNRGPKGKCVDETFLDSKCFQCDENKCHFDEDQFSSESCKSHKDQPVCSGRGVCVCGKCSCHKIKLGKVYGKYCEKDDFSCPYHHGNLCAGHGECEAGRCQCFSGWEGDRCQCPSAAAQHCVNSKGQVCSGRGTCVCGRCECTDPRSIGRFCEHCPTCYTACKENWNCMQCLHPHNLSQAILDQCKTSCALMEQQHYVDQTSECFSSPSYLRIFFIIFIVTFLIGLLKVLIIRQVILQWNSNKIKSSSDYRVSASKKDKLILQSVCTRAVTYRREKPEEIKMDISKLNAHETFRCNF
# T3: human integrin β8 swap construct RKMALY (SEQ ID NO:129) (human, UniProt P26012 43-769)
# T3 sequence: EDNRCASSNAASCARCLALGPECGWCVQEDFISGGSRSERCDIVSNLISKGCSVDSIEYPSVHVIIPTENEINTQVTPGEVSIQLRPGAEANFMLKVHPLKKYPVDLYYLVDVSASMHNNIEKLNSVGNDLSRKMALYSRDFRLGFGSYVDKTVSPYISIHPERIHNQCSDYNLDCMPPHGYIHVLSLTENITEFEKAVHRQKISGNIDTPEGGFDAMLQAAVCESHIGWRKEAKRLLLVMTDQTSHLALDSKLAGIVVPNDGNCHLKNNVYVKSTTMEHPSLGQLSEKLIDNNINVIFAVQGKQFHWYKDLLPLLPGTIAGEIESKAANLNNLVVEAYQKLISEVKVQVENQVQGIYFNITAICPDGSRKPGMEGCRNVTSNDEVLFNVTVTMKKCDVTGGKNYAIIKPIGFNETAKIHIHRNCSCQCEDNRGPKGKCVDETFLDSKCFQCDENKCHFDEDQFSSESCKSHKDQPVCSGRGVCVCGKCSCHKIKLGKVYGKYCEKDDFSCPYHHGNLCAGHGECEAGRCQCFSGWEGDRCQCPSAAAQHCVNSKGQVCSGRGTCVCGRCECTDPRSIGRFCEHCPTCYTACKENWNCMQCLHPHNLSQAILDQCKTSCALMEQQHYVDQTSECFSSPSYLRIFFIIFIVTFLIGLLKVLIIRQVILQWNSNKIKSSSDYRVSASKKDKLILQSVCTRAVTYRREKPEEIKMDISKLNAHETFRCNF
# T4: human integrin β8 swap construct KKMAFF (SEQ ID NO:133) (human, UniProt P26012 43-769)
# T4 sequence: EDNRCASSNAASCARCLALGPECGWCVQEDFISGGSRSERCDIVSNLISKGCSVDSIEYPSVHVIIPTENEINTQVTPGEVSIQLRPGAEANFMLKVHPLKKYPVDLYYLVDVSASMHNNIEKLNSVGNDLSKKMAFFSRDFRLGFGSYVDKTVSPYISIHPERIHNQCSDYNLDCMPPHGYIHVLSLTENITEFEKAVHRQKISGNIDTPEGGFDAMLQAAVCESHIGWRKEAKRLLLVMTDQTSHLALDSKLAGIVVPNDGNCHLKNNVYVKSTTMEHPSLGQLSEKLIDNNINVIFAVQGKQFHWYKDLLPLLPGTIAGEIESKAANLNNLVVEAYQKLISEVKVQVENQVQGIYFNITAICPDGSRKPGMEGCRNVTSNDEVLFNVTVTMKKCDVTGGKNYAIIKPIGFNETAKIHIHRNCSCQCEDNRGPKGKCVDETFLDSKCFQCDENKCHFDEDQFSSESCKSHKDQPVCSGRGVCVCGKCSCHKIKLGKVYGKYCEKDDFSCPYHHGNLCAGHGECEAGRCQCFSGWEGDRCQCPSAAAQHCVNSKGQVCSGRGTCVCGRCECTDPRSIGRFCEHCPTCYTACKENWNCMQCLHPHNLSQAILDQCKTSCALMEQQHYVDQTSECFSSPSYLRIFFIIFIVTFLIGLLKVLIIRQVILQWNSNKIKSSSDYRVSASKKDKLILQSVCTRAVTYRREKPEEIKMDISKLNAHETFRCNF
# Legend:
# Test in all cases: cell staining of β8 amino acid swap constructs (175-180)
# [1] = biological target: T1, human integrin β8 swap construct KKMAFY …
# [2] = biological target: T2, human integrin β8 swap construct KKMALF …
# [3] = biological target: T3, human integrin β8 swap construct RKMALY …
# [4] = biological target: T4, human integrin β8 swap construct KKMAFF …
% positive [1] [%],% positive [2] [%],% positive [3] [%],% positive [4] [%],Binder
3,31,14,116,"37E1B5 antibody (antibody, V domains shown) VH: EVQLVESGGGLVQPGGSLNLSCAVSGFVFSRYWMSWVRQAPGKGLEWIGEINPDSSTINYTSSLKDKFIISRDNAKNTLYLQMNKVRSEDTALYYCACLITTEDYWGQGTSVTVSS VL: QIVLTQSPSSMYASLGERVTIPCKASQDINSYLSWFQQKPGKSPKTLIYYANRLVDGVPSRFSGSGSGQDYSLTISSLEYEDMGIYYCLQYDEFPYTFGGGTKLEIK"
6,1,1,9,"14E5 antibody (antibody, V domains shown, Mouse hybridoma antibody; also called hybridoma clone 14E5) VH: EVQLQQSGAELMKPGASVKISCKATGYTFSTYWIEWIKQRPGHGLEWIGHILPGSVITNYNEKFKGKAAITADTSSNTSYMQLSSLTSEDSAVYYCARWGWDSYWGQGTLVTVSS VL: DIEMTQSPSSLSASLGDRVTISCSTSQDISSSLNWYQQKPDGTVTLLIYYTSNLHSGVPSRFSGSGSGTDYSLTISNLEPEDIATYYCQQYSKLPYTFGGGTKLEIKR"
31,3,4,115,"11E8 antibody (antibody, V domains shown, Mouse hybridoma antibody) VH: EVQLQQSGPELMKTGASVKISCKATGYTFSSYWIEWVKQRPGHGLEWIGDILPGSGTTNYNEKFKGRATVTADRSSNTAYMQLSSLTYGDSAVYYCATWGWDTYWDQGTSVTVSS VL: DIVMTQSPSSLSASLGDRVTISCSASQGISNYLNWYQQKPDGTVKLLIYYTSSLHSGVPSRFSGSGSGTDYSLTISNLEPEDIATYYCQQYSNLPYTFGGGTKLEIKR"
